For three molecules, IC50 and Km results are on record in publication PMC3578862, “Single Residue Mutation in Active Site of Serine Acetyltransferase Isoform 3 from Entamoeba histolytica Assists in Partial Regaining of Feedback Inhibition by Cysteine” (PLoS ONE, 2013).

The target of series [1] is T1, Serine acetyltransferase isoform 1 (EhSAT1) (Entamoeba histolytica, UniProt Q9U8X2).
T1 construct: gene EhSAT
T1 sequence (Q9U8X2 1-305): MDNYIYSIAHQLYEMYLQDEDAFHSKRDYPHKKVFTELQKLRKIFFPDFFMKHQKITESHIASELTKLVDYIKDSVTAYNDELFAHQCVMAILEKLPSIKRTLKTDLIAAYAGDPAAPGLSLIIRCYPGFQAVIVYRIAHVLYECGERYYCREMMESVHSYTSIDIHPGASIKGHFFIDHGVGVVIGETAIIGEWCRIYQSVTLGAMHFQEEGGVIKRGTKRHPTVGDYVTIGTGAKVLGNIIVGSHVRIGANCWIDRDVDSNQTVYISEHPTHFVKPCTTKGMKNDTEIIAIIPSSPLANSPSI
The series can be described thus: SAT activity assay, acetyl-CoA thioester cleavage at […] nm, […] serine. The class given is biochemical.

Substrate in the series “purified protein”: N[C@@H](CO)C(=O)O
The experiment in a line: purified protein. The class given is biochemical, Entamoeba histolytica. The following applies: acetyl coenzyme A active site.

In the case of `N[C@@H](CS)C(=O)O` [L-cysteine], the IC50 in series [1] stood at 9.59 µM.

B1: Serine acetyltransferase isoform 1 (EhSAT1) (Entamoeba histolytica) (protein)
chain: T1 sequence (Q9U8X2 1-305)
For B1, the Km in the series “purified protein” (Asp114, Asp179, His180, His208, Arg222, His223) is reported as 43.5 µM.

B2: Serine acetyltransferase isoform 3 (EhSAT3) (Entamoeba histolytica) (protein)
chain: MSSLLQQTSQLLVQSYQSDNIAFKSTKQFPEKKSFLELELIQKILFPDFFTRRDKRTFNNVLERLSLLVYHIQNSIEAYYNQQLAEKCITALLSQFVTIRELVKQDIIAAYTGDPAASSLAMIIRSYPGIHVMMIQRVAHILYMNGDIEYSRELMENIHSVTGIDIHPGTSIGNHFFIDHGVGVVIGETAVIGNWCRVYQSVTLGAMSFKEDNGIVIKGNKRHPTIGDFVVIGAGAKVLGNITIGSNVKIGANCWITQNIDQDQIVFISEHPSQITKSSTKQSSKDDKIILQSLTENKISEEQENLSWVNSPELLCTYTSEESTPINLDCFVSCQQ
In the case of B2, in the series “purified protein”, the Km turned out to be 52.0 µM.
